Among the data in paper doi:10.1101/2021.05.30.446358 are stoichiometry N values, retold here.

The experiment has as its target LH1 αβ-polypeptide pair of Rhodospirillum rubrum (Rhodospirillum rubrum) (UniProt P02947). The experiment in a line: cryo-EM structure.

What is called stoichiometry N is a count of units in the complex or per binding partner. As for “LH1 αβ-polypeptide pair of Rhodospirillum rubrum (from UniProt P02947 1-52; P02950 1-49) (complex)”, the stoichiometry N is 16.
